Assay results: patent US20250002610A1 (Genmab, published 2025)

Experiments:
[1] = target: T1, human DR4 (Death Receptor 4), cell surface expressed on human tumor cell lines (human, UniProt O00220 24-468); experiment: flow cytometry, A549 cells, n = 1
T1 construct: also called TNFRSF10A; TRAIL-R1
T1 sequence: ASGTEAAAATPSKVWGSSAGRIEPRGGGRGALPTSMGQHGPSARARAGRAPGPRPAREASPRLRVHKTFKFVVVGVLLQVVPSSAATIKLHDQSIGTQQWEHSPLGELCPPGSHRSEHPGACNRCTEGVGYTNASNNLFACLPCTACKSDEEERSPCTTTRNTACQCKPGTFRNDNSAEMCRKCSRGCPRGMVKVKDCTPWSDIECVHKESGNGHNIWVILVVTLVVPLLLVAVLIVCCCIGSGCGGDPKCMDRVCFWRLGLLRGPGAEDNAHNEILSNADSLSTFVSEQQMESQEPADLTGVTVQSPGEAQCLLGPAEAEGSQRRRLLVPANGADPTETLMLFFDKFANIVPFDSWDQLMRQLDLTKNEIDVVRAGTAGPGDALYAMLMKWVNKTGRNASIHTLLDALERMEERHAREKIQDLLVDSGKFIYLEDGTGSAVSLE

[2] = target: T1, human DR4 (Death Receptor 4), cell …; experiment: flow cytometry, HCT-15 cells, n = 3
[3] = target: T2, human FAPα (Fibroblast activation protein alpha), cell surface expressed (human, UniProt Q12884 1-760); experiment: flow cytometry, Expi293F cells expressing human FAPα, n = 1
T2 construct: Endogenous on human lung fibroblasts and CAFs
T2 sequence: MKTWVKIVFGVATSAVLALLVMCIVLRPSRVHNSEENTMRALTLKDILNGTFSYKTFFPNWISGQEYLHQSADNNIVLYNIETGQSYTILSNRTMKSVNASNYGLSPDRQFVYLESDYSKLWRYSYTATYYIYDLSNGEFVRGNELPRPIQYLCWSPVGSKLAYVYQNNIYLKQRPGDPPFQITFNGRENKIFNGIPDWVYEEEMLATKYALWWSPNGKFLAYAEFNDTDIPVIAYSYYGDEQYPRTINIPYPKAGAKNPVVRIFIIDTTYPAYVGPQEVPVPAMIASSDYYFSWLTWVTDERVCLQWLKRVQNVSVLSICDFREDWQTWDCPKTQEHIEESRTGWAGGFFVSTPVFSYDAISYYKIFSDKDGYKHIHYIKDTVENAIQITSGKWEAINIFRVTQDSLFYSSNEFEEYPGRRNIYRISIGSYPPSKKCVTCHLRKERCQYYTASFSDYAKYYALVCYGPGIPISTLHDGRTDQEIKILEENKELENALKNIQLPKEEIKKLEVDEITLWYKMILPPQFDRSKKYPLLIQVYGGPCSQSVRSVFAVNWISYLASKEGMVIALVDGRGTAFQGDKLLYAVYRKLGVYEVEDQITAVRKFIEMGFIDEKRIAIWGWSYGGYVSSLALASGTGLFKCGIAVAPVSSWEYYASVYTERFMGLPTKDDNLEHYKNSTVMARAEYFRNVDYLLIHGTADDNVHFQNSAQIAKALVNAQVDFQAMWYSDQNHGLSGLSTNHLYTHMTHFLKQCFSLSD
Procedure: (§1) Binding of BisG1-FAPα-FERL/DR4-FERR, BisG1-FAPα-FEAL/b12-FEAR and IgG1-FAPα-FERL to FAPα of species commonly used for nonclinical toxicology studies was assessed by flow cytometry using Expi293F cells transiently expressing FAPα from different animal species. IgG1-b12 was included as negative control.
(§2) Expi293F cells expressing recombinant FAPα from various species (human, cynomolgus monkey, dog, pig, rat or mouse) were seeded (20,000 cells/well) in 96-Well round bottom plates (Greiner Bio-one, Cat #650101). Antibody dilutions were prepared using FACS buffer, consisting of PBS (Capricorn Scientific, Cat #PBS-10XA, diluted to 1×PBS in distilled water)+1% BSA (Roche, Cat #10735086001)+0.02% Sodium Azide (Bio-World, Cat #41920044-3). Plates were centrifuged, supernatant was removed, and cells were resuspended in 100 μL of antibody dilutions (concentration range 30-0.00017 μg/mL with three-fold serial dilutions using FACS buffer) of BisG1-FAPα-FERL/DR4-FERR, BisG1-FAPα-FEAL/b12-FEAR, IgG1-FAPα-FERL and IgG1-b12 and incubated for 30 min at 4° C. […] After 30 min incubation at 4° C., cells were washed with FACS buffer and resuspended in FACS buffer supplemented with TO-PRO-3 Iodide viability marker (Invitrogen, Cat #T3605, diluted 1:4,000). Antibody binding to viable cells (gMFI of PE on TO-PRO-3 negative cells) was analyzed by flow cytometry on a FACS Celesta and FACS_Diva software (first two experiments) or iQue® 3 and FlowJo software (last experiment). gMFI was determined and visualized using GraphPad Prism. Binding curves were analyzed using nonlinear regression analysis. The concentration (pg/mL) at which 50% of the maximal effect was observed (EC₅₀) was derived from the fitted curves.

[4] = target: T3, mouse FAPα on Expi293F cells (mouse (Mus musculus), UniProt P97321 1-761); experiment: flow cytometry on Expi293F cells transiently expressing mouse FAPα, gMFI PE
T3 sequence: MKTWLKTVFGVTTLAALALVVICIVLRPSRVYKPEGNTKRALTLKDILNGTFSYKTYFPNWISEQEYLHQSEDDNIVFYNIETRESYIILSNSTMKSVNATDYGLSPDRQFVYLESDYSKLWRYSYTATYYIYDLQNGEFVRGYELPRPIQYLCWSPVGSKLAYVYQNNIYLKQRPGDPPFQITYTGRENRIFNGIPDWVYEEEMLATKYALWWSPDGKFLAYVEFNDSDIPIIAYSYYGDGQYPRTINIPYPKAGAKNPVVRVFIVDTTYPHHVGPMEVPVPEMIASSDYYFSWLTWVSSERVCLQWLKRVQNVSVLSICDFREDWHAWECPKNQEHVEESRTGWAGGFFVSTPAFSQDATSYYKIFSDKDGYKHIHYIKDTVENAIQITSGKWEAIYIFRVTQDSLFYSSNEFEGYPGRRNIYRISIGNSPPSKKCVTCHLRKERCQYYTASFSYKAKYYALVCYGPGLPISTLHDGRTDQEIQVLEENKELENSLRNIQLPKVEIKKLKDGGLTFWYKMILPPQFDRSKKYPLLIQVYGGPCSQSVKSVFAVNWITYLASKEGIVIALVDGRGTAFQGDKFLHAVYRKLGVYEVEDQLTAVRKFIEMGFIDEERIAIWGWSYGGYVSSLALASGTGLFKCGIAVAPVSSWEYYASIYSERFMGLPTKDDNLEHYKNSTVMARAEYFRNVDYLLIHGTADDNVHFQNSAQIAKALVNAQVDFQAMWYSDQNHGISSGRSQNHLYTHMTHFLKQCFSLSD
Procedure: as §1, §2

EC50 [3]: 0.18 µg/mL | binding result [4]: binds
B1: BisG1-FAPα-FERL/DR4-FERR (bispecific antibody, human IgG1, kappa, lambda)
heavy 1: EVQLLESGGGLVQPGGSPRLSCEASGFTFSSYALSWVRQAPGKGLEWVSAISGSGGGRYYADSVKGRFTISRDNSKNTLFLQMNSLRAEDTAVYYCAKEGYSSSGTYWDHWGQGTLVTVSSASTKGPSVFPLAPSSKSTSGGTAALGCLVKDYFPEPVTVSWNSGALTSGVHTFPAVLQSSGLYSLSSVVTVPSSSLGTQTYICNVNHKPSNTKVDKRVEPKSCDKTHTCPPCPAPEFERGPSVFLFPPKPKDTLMISRTPEVTCVVVDVSHEDPEVKFNWYVDGVEVHNAKTKPREEQYNSTYRVVSVLTVLHQDWLNGKEYKCKVSNKALPAPIEKTISKAKGQPREPQVYTLPPSREEMTKNQVSLTCLVKGFYPSDIAVEWESNGQPENNYKTTPPVLDSDGSFLLYSKLTVDKSRWQQGNVFSCSVMHEALHNHYTQKSLSLSPG
light 1: AIQMTQSPSSVSASVGDRVTITCRASQGVSSWLAWYQQKPGRAPKLLIYVASTLQSGVPSRFSGSGSGTDFTLTINSLQPEDFATYYCQQANSFPPTFGQGTRLEMKRTVAAPSVFIFPPSDEQLKSGTASVVCLLNNFYPREAKVQWKVDNALQSGNSQESVTEQDSKDSTYSLSSTLTLSKADYEKHKVYACEVTHQGLSSPVTKSFNRGEC
heavy 2: QVQLQESGPGLVKPSGTLSLTCAVSGGSISSYSWWSWIRQPPGKGLEWIGELYHSGSTNYNPSLKSRVTISVDKSKNQFSLKLRSVTAADTAVYYCVRGVATIDYWGQGTLVTVSSASTKGPSVFPLAPSSKSTSGGTAALGCLVKDYFPEPVTVSWNSGALTSGVHTFPAVLQSSGLYSLSSVVTVPSSSLGTQTYICNVNHKPSNTKVDKRVEPKSCDKTHTCPPCPAPEFERGPSVFLFPPKPKDTLMISRTPEVTCVVVDVSHEDPEVKFNWYVDGVEVHNAKTKPREEQYNSTYRVVSVLTVLHQDWLNGKEYKCKVSNKALPAPIEKTISKAKGQPREPQVYTLPPSREEMTKNQVSLTCLVKGFYPSDIAVEWESNGQPENNYKTTPPVLDSDGSFFLYSRLTVDKSRWQQGNVFSCSVMHEALHNHYTQKSLSLSPG
light 2: QSALTQPPSASGSPGQSVTISCTGTSSDVGGYNFVSWYQQDPGKAPKLLIYEVTKRPSGVPDRFSGSKSGNTASLTVSGLQAEDEADYYCSSYAGSNNVMFGGGTKLTVLGQPKAAPSVTLFPPSSEELQANKATLVCLISDFYPGAVTVAWKADSSPVKAGVETTTPSKQSNNKYAASSYLSLTPEQWKSHRSYSCQVTHEGSTVEKTVAPTECS
notes: Human IgG1 bispecific made by controlled Fab-arm exchange of IgG1-FAPα-FERL and IgG1-DR4-FERR; monovalent for FAPα and for DR4; also called GEN1057
EC50 [1]: 0.86 µg/mL | EC50 [2]: 0.68 µg/mL
